Measurements published in the supplement of paper PMC9170038.

Test system: MS2 coat protein
Assay: apparent KD of MS2 coat protein; designed switch direction (-1 OFF switch, 1 ON switch): -1; higher = weaker reporter binding
Summary of the method: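 Designed RNA switches with common flanks were transcribed on Illumina chips by stalled E. coli RNA polymerase and titrated with SNAP-549-labelled MS2 coat protein, from 0.7 or 1.5 nM doubling to 3 µM, in Tris-HCl pH 7.5 buffer with KCl, MgCl2, BSA, DTT, tRNA and Tween-20. Steps lasted 0.8–1.5 h (lowest) to 10–20 min (highest). Titrations ran without input, with 200 uM small-molecule ligand, or with an oligonucleotide input. Normalised cluster fluorescence was curve-fitted, and apparent KD is the per-design median over clusters.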

[1] = input ligand: microRNA oligo, concentration not stated
[2] = Eterna round: R95, input ligand: microRNA oligo, concentration not stated
[3] = Eterna round: R95, input ligand: FMN 200 uM
[4] = Eterna round: R95, input ligand: none

| Sequence | apparent KD of MS2 coat protein (input ligand: FMN 200 uM) [nM] | apparent KD of MS2 coat protein (input ligand: none) [nM] | apparent KD of MS2 coat protein [2] [nM] | also measured |
| --- | --- | --- | --- | --- |
| UGAGACUGAGGAUAUACUAGACUACAAAGUAGUCAGUGGGUACAUGAGGAUCACCCAUGUAGAAGGCAGCCUCG [Omei Repeat Sequence v1] (Eterna round: R97, puzzle: Exclusion 2) | 289 | 35.9 |  |  |
| AGCACGACUGCAGGAUAUUCCGCAGUUGAUGCGGGAGAAGGGCAGGGCAGCACUUGAGGAUCACCCAAGUGACCGUGUUGCCAA [Mutated MS2 EX1.7] (Eterna round: R96, puzzle: Exclusion NG 1) | 35.8 | 25.1 |  | apparent KD of MS2 coat protein [1]: 17.2 nM |
| GAGUACUCAGGAUAUGCAUGAGUAGUGAUGUAGAGAGUGUGACAUGAGGAUCACCCAUGUAGAAGGGAGGAAUG [Version #1] (Eterna round: R97, puzzle: Exclusion 2) | 338 | 105 |  |  |
| CCUGGGUAAGGAUAUUUGAUUCCCUCCGGUUAGGGAGGAUGGAAGAAGGUACAUGAGGAUCACCCAUGUGUGGA [Eternabot (L1) Solution 67] (Eterna round: R97, puzzle: Exclusion 4) | 94.7 | 97.8 |  |  |
| GAAAAGUAAGGAUAUGUCCACAGUGAGGAAACUCACUGUGGACAGAAGGUACAUGAGGAUCACCCAUGUUUCUC [ExDelusion 3 - Jieux - Exclusion 4] (Eterna round: R97, puzzle: Exclusion 4) | 213 | 39 |  |  |
| AGCUAGUGCCGAGGAUAUGAUACAUGAGGAUCACCCAUGUGUAGGGUGUAUAUAUAUCAAUAAUAUUAGAAGGCGGCGUUGGCA [JL ENG2 1.47] (Eterna round: R96, puzzle: Exclusion NG 2) | 785 | 1480 |  | apparent KD of MS2 coat protein [1]: 480 nM |
| CUUUCGUGAGGAUAUGAAGCUUCGAUCGUGAGAUCGAGGCUACAGAAGGCACAUGAGGAUCACCCAUGUUCCUC [salish99_ex4_r4_217] (Eterna round: R97, puzzle: Exclusion 4) | 666 | 31.9 |  |  |
| AGCAUGUGAGGAUAUGUACCUGAGUGCUUUGCGCUCAGGAAACAGAAGGCACAUGAGGAUCACCCAUGUGAAAA [jl-ex4-4.45 ViennaUCT mod] (Eterna round: R97, puzzle: Exclusion 4) | 68.7 | 281 |  |  |
| UAUAUUGGAGGAUAUCUCUCAGUGAACAUGAGGAUCACCCAUGUUGGUGAACGACGGCACAGAGAAGGUCAACGCA [Eternabot (L2) Solution 61] (Eterna round: R97, puzzle: Exclusion 5) | 314 | 499 |  |  |
| CACGAAGAGUGAGGAUAUGUGCGACAAAGUUGCACAGAAGGCACAUGAGGAUCACCCAUGUAAGCUAGGUCGAAAGACCUAGCG [Omei Exc(NG)1 Av3] (Eterna round: R96, puzzle: Exclusion NG 1) | 47.5 | 23.8 |  | apparent KD of MS2 coat protein [1]: 20.2 nM |
| GUGUACGGAGGAUAUAUAUGGGCAGGCUGACCUGCAGCUUCACAUGAGGAUCACCCAUGUAGAAGGCUGUGCAC [JL-ex2-2.07 Brourd mod] (puzzle: Exclusion 2) |  |  | 27.1 |  |
| AGCAGACGAGGAUAUGAUUAAUAAUACAUGAGGAUCACCCAUGUAAUACUGAUCUAUGGAUCAGAAGGCGUCUGCU [E5/6-A2] (Eterna round: R97, puzzle: Exclusion 5) | 12 | 16.6 |  |  |
| CUUUUGUGAGGAUAUCAGUAGUAAAAAAAUAAAAUUACUACUGAGAAGGCACAUGAGGAUCACCCAUGUUCCUU [salish99_ex4_r3_010] (puzzle: Exclusion 4) |  |  | 15.2 | apparent KD of MS2 coat protein [3]: 28.4 nM; apparent KD of MS2 coat protein [4]: 14 nM |
| GAGGUGUUAGGAUAUCGGAGAUGGAGACCGACGGGAUGAGCCGAGAAGGAACAUGAGGAUCACCCAUGUAGGUG [JR_Exclu4_Sub033] (puzzle: Exclusion 4) |  |  | 386 |  |
| ACGUAUAGAGGAUAUAGUGAAUAUUACAUGAGGAUCACCCAUGUUCUUCAAAGUAUAUUUCUAGAAGGCUAAUGAA [EX-5 Malc#10] (puzzle: Exclusion 5) |  |  | 35.5 |  |
| GAUACACGUUCAGGAUAUCGCGCCCAAUUACACCUCUUCCGACGGACAUGAGGAUCACCCAUGUGCGAGAAGGGAACCAAAACU [Orquonbedi] (Eterna round: R96, puzzle: Exclusion NG 2) | 13.6 | 17.4 |  | apparent KD of MS2 coat protein [1]: 13.2 nM |
| GGCAUAAUGUAGGAUAUCGUAUUGGAAACAAUACGAGAAGGGCAAACAUGAGGAUCACCCAUGUUCCUUAAGCC [Mat - Exclusion 6 - Eli Mod - D71] (puzzle: Exclusion 6) |  |  | 15.1 |  |
| UUGUGCACGCUGCGAUCCUACAUGAGGAUCACCCAUGUGGUCUGGUGGCGUGGGUCACCGGACUUGGCUCGUCUUGA [salish99_S_TOV1_R5_068] (Eterna round: R97, puzzle: Sensor, turn-off variant 1) | 118 | 129 |  |  |

| Sequence | apparent KD of MS2 coat protein (input ligand: FMN 200 uM) [nM] | apparent KD of MS2 coat protein (input ligand: none) [nM] | apparent KD of MS2 coat protein [2] [nM] | also measured |
| --- | --- | --- | --- | --- |
| ACACUGCGAGGAUAUACAUGAGGAUCACCCAUGUUUCGGUAGACAAGGUUAAUUUAAGGUAGAAGGCGCGUAUU [JR_Ex3_Sub009] (Eterna round: R97, puzzle: Exclusion 3) | 173 | 40.2 |  |  |
| UUCGUGCAGCUUUGCUGUACGCGUACAUGAGGAUCACCCAUGUAGGAUAUGGUACGCUUUGCGUGCUAGAAGGAUAUGUGGAGG [JL EXNG3 1.35] (Eterna round: R96, puzzle: Exclusion NG 3) | 59.1 | 45.2 |  | apparent KD of MS2 coat protein [1]: 33.6 nM |
| UCCUCACAUGAGGAUCACCCAUGUUAGGAUAUCUUAGAGCGCGAAUGACAGUUCUUUAAGAGAAGGAACUGGGC [Exclusion 1 (MOD1.2 of Edarti)] (Eterna round: R97, puzzle: Exclusion 1) | 50.5 | 20.1 |  |  |
| GUGGUGGGUUUUCCGAGUGACAUGAGGAUCACCCAUGUGUUAGUUUGAGGUAUCAAGCGAAUGGCUCGUCUUAUGUG [JR_SV3TOV1_Sub046] (Eterna round: R96, puzzle: Sensor v3, turn-off variant 1) | 982 | 623 |  | apparent KD of MS2 coat protein [1]: 44.7 nM |
| AAAUUCUGAGGAUAUCGAUGUUUGUACAUGAGGAUCACCCAUGUCCUUUUUAUUUUUUCUCGAGAAGGCAGUGUAU [JR_E5_Sub100] (Eterna round: R96, puzzle: Exclusion 5) | 48.1 | 40.7 |  | apparent KD of MS2 coat protein [1]: 32 nM |
| AACCAGCUAGGAUAUGCUUGCGCGUGUUCUGGUUAUAAUCGACUUGAGGAUCACCCAAGUAGAAGGAGCUGGCG [EX2 #54] (Eterna round: R97, puzzle: Exclusion 2) | 1360 | 445 |  |  |
| AAUAACUGAGGAUAUACUAAAAUAUGAAUAAAAUAAAUAAAACAUGAGGAUCACCCAUGUAGAAGGCAGAAUAA [JMF's Not so obvious solution 8] (puzzle: Exclusion 2) |  |  | 23.3 | apparent KD of MS2 coat protein [3]: 21.4 nM; apparent KD of MS2 coat protein [4]: 21.5 nM |
| AGUAGUAGUAUCCGAUCUUACAUGAGGAUCACCCAUGUAGCUAGACGUGCACGCGAUGCUCGUCAGACUACCAGAUG [salish99_TOv1_r3_051] (puzzle: Sensor v3, turn-off variant 1) |  |  | 230 | apparent KD of MS2 coat protein [3]: 148 nM; apparent KD of MS2 coat protein [4]: 277 nM |
| UUUUUAGAUGAAGGAUAUACUUAACAUGAGGAUCACCCAUGUGGUGUUGUGAGUGAGUGAGUUUAGUAGAAGGUCAAUUAUUUU [JMF's solution 21] (Eterna round: R96, puzzle: Exclusion NG 2) | 187 | 260 |  | apparent KD of MS2 coat protein [1]: 151 nM |
| CCAGCGUAUGUAAGGAUAUGCUGGUCGAAAGAUCAGCAGAAGGUACAUGAGGAUCACCCAUGUGUAAUCGUUGG [Mod of JL 5 - Jieux - Brourd's mod of Exclusion 4] (Eterna round: R97, puzzle: Brourd's mod of Exclusion 4) | 52.7 | 18.9 |  |  |
| ACGAAACAUGAGGAUCACCCAUGUGAGGAUAUGUAAAUACUAGACAAAUAACAGAAAAACAGAAGGCACUCAGA [JR_Exclusion1_Sub003] (puzzle: Exclusion 1) |  |  | 22 |  |
| GUGCGGUGAGGAUAUACGUAGGUACAGAUCUGUGUGUUCCUACAUGAGGAUCACCCAUGUAGAAGGCAUGGCAC [LRO-Excl2-12] (puzzle: Exclusion 2) |  |  | 38.4 |  |
| ACACAACAUGAGGAUCACCCAUGUCAGGAUAUGCAGAAGAAGAAGAAGAGAAGAGAGAGCAGAAGGGACAACAC [Ex 1 M3] (puzzle: Exclusion 1) |  |  | 30 | apparent KD of MS2 coat protein [3]: 41.7 nM; apparent KD of MS2 coat protein [4]: 33.5 nM |
| UGGAGAUAUAAGGAUAUAUUAGGAGGAGAGGAAAUAGAAGGUGUAACAUGAGGAUCACCCAUGUACCUCAUGUA [Default title] (Eterna round: R97, puzzle: Exclusion 6) | 693 | 985 |  |  |
| UUGUUAUAUGUAGGAUAUGCAUAUUAUUAUUAUGCAGAAGGACAUGAGGAUCACCCAUGUAUGUUGUUGUUAUAUAUUAUAUAU [Title] (Eterna round: R96, puzzle: Exclusion NG 1) |  |  |  | apparent KD of MS2 coat protein [1]: 17.9 nM |
| ACAGCGUGAGGAUAUACAUGAGGAUCACCCAUGUAUGGCAGGUUAUCCUGUCGUGAGUGUAGAAGGCACGCUGU [Exclusion 3 - Oddities v.5 ( A small slide from ms2 to fmn)] (puzzle: Exclusion 3) |  |  | 15.4 |  |
| CCCUCACAUGAGGAUCACCCAUGUCAGGAUAUCUAGUCAGACAGUGUAGCACUAAUGAAGAGAAGGGACGUAUG [Edtetidi] (puzzle: Exclusion 1) |  |  | 23.9 |  |
